{
  "source": "patent US20120231013A1",
  "molecular_target": "recombinant TIMP-3 (human or mouse; Table 2 does not say which)",
  "sequence (P35625 24-211)": "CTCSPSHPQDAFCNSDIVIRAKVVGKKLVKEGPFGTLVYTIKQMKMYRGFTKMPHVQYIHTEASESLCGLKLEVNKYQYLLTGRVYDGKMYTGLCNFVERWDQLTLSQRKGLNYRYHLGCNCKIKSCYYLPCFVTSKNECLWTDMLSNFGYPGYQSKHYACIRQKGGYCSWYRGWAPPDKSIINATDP",
  "test": "AlphaScreen, biotinylated TIMP-3, Assay 1",
  "data": [
    {"binder": "CNASSQFLCSSGRCVAEALLCNGQDDCGDSSDERGCHINE", "note": "[LRP-1 peptide LA20]", "values": [
      {"measurement": "total signal (cps)", "result": 2200, "unit": "cps"}
    ]}
  ]
}
